Substitutions are numbered along the chain they refer to.
Key:
human CD20 [1] = target: T1, human CD20 (human, UniProt P11836 1-297); test: flow cytometry on Ramos cells, MCF (Mean PE)
T1 construct: whole, on cells; On Ramos or Raji B cells (natural) or on transfected CHO-K1 cells, as said under assay or readout; also called CD20 on Ramos cells; CD20 on Raji cells
T1 sequence (looked up): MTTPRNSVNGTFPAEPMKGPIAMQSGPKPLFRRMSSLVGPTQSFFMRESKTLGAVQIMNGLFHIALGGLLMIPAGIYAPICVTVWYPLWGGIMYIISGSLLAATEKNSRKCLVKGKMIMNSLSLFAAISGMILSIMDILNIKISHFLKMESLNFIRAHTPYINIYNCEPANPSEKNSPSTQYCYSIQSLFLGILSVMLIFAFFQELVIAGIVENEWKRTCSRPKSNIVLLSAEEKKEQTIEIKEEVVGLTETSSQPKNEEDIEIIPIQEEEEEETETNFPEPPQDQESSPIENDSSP

human CD20 [2] = target: T1, human CD20; test: flow cytometry on Raji cells, MCF (Mean PE)
[3] = target: T2, human TCR/CD3 complex on purified primary human T cells (human); test: flow cytometry on purified primary human T cells
T2 construct: Natural complex on T cells isolated from buffy coats of healthy donors; also called hu T cells; purified primary T cells
T2 sequence (delta, as listed by the source limits assumed, chain 1 of 4): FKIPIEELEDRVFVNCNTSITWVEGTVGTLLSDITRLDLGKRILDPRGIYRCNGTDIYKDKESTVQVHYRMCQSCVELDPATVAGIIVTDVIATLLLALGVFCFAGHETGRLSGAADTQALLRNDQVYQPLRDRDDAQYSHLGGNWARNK
T2 sequence (gamma, as listed by the source limits assumed, chain 2 of 4): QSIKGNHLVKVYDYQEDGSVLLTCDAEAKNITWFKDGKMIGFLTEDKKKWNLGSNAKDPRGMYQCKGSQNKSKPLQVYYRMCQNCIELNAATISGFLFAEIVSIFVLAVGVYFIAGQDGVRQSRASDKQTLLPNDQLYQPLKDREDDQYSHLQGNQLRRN
T2 sequence (epsilon, as listed by the source limits assumed, chain 3 of 4): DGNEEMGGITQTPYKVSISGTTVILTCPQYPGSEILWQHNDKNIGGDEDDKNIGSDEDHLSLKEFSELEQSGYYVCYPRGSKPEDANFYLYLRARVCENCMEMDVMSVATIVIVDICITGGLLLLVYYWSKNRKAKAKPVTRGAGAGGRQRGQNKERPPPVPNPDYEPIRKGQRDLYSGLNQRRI
T2 sequence (zeta, as listed by the source limits assumed, chain 4 of 4): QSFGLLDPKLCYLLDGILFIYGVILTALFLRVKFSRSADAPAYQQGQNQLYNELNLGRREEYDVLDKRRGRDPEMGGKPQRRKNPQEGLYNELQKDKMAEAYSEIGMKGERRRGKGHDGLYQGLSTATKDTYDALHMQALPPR

[4] = target: T3, human CD3 expressed on HEK293H cells (human, UniProt P20963 22-164); test: flow cytometry on HEK293H cells expressing human CD3
T3 construct: also called HEK293H CD3; HEK293H human CD3
T3 sequence (chain, as listed by the source limits assumed, chain 1 of 4): as the sequence (delta, as listed by the source limits assumed, chain 1 of 4) above
T3 sequence (chain, as listed by the source limits assumed, chain 2 of 4): as the sequence (gamma, as listed by the source limits assumed, chain 2 of 4) above
T3 sequence (chain, as listed by the source limits assumed, chain 3 of 4): as the sequence (epsilon, as listed by the source limits assumed, chain 3 of 4) above
T3 sequence (P20963 22-164 limits assumed, chain 4 of 4): as the sequence (zeta, as listed by the source limits assumed, chain 4 of 4) above
From the text: The parental HEK293H cell line was included as TCR/CD3 negative cell line.

B1: 20CD019C07 (VHH)
VHH: EVQLVESGGGLVQPGGSLRLSCTFSGGTFSSYTMGWFRQAPGKEREFVAEVRWGGVTTYSNSLKDRFSISEDSVKNAVYLQMNSLKPEDTAVYYCAAVRQMYMTVVPDYWGQGTLVTVSS
notes: also called the anti-CD20 Nanobody; human CD20 targeting Nanobody
In the case of B1, the “EC50 (read off the curve)” value (human CD20 [1]) is reported as ~9 nM and the “EC50 (read off the curve)” value (human CD20 [2]) is reported as ~20 nM.

B2: T0170117G03 (VHH)
VHH: EVQLVESGGGPVQAGGSLRLSCAASGRTYRGYSMGWFRQAPGKEREFVAAIVWSGGNTYYEDSVKGRFTISRDNAKNTMYLQMTSLKPEDSATYYCAAKIRPYIFKIAGQYDYWGQGTQVTVSS
notes: Monovalent anti-CD3 Nanobody, expressed in E. coli TG1 as triple Flag, His6-tagged protein; also called T0170PMP117G03; cluster A representative; not shown: C-terminal triple FLAG and His6 tag
B2 gave an EC50 [3] of 22 nM.

B3: T0170075G11 (VHH)
VHH: B2 VHH with G16D, A40V, S54T, G55D, N74I, A75T, Q82H
notes: also called T0170PMP075G11; cluster A; not shown: C-terminal triple FLAG and His6 tag
For B3, the EC50 [4] was 84 nM.

Source: US20250388672A1 (Ablynx, published 2025)
